{"source": "paper PMC2702170", "about": "“DNA Structure Modulates the Oligomerization Properties of the AAV Initiator Protein Rep68” (PLoS Pathogens, 2009)", "binders": {"B1": {"name": "poly-dT38 5'-FAM (ssDNA)", "DNA": "TTTTTTTTTTTTTTTTTTTTTTTTTTTTTTTTTTTTTT"}, "B2": {"name": "poly-dT25 ssDNA (ssDNA)", "DNA": "TTTTTTTTTTTTTTTTTTTTTTTTT"}, "B3": {"name": "RBS dsDNA (JM-2/JM-20) (dsDNA)", "DNA 1": "GCCTCAGTGAGCGAGCGAGCGCGCAGAG", "DNA 2": "CTCTGCGCGCTCGCTCGCTCACTGAGGC"}, "B4": {"name": "Rep68 (adeno-associated virus 2), non-tagged (natural protein)", "chain": "MPGFYEIVIKVPSDLDGHLPGISDSFVNWVAEKEWELPPDSDMDLNLIEQAPLTVAEKLQRDFLTEWRRVSKAPEALFFVQFEKGESYFHMHVLVETTGVKSMVLGRFLSQIREKLIQRIYRGIEPTLPNWFAVTKTRNGAGGGNKVVDECYIPNYLLPKTQPELQWAWTNMEQYLSACLNLTERKRLVAQHLTHVSQTQEQNKENQNPNSDAPVIRSKTSARYMELVGWLVDKGITSEKQWIQEDQASYISFNAASNSRSQIKAALDNAGKIMSLTKTAPDYLVGQQPVEDISSNRIYKILELNGYDPQYAASVFLGWATKKFGKRNTIWLFGPATTGKTNIAEAIAHTVPFYGCVNWTNENFPFNDCVDKMVIWWEEGKMTAKVVESAKAILGGSKVRVDQKCKSSAQIDPTPVIVTSNTNMCAVIDGNSTTFEHQQPLQDRMFKFELTRRLDHDFGKVTKQEVKDFFRWAKDHVVEVEHEFYVKKGGAKKRPAPSDADISEPKRVRESVAQPSTSDAEASINYADRLARGHSL", "notes": "Rep68 protein of adeno-associated virus 2 (AAV2), GenBank AAC03774; Expressed as His6-PreScission site-Rep68; the His-PP tag was removed with PreScission protease; also called untagged Rep68; non-tagged Rep68; source: E. coli BL21(DE3)pLysS, purified (Ni column, PreScission cleavage, second Ni column, Superdex 200 gel filtration); not shown: His6, N-terminal, cleaved"}, "B5": {"name": "His-Rep68 K406A (natural protein)", "chain": "B4 chain with K406A", "notes": "Rep68 protein of adeno-associated virus 2 (AAV2), GenBank AAC03774, with K406A; source: E. coli BL21(DE3)pLysS, purified (Ni column, Superdex 200 gel filtration); not shown: His6, N-terminal, kept"}, "B6": {"name": "His-Rep68 K404A (natural protein)", "chain": "B4 chain with K404A", "notes": "Rep68 protein of adeno-associated virus 2 (AAV2), GenBank AAC03774, with K404A; source: E. coli BL21(DE3)pLysS, purified (Ni column, Superdex 200 gel filtration); not shown: His6, N-terminal, kept"}}, "key": {"Rep68 [1]": {"target": "T1, Rep68 (Adeno-associated virus 2 (AAV2), UniProt P03132 1-536)", "assay": "fluorescence anisotropy; Anisotropy: 20 mM HEPES pH 7.5, 50 mM NaCl, 5 nM DNA, 20 C, 15 min. SEC: 25 mM Tris-HCl pH 8.0 (4 C), 200 mM NaCl, 5% glycerol, 1 mM TCEP, 16.6 uM protein, 30 min on ice", "settings": "protein: recombinant; tags: untagged (His6-PreScission tag removed); chain copies: 16; label: 5' 6-carboxyfluorescein"}, "Rep40 [2]": {"target": "T2, Rep40 (Adeno-associated virus 2 (AAV2), UniProt Q89269 1-312)", "T2 sequence": "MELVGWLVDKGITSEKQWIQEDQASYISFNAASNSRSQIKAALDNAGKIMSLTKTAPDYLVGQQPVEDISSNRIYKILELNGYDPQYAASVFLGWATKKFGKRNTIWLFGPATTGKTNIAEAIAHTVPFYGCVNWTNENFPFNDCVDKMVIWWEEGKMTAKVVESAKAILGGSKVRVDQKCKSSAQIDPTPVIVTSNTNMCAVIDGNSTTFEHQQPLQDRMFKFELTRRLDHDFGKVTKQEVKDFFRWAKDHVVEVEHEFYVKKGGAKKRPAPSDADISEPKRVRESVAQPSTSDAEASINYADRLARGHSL", "assay": "fluorescence anisotropy; Anisotropy: 20 mM HEPES pH 7.5, 50 mM NaCl, 5 nM DNA, 20 C, 15 min. SEC: 25 mM Tris-HCl pH 8.0 (4 C), 200 mM NaCl, 5% glycerol, 1 mM TCEP, 16.6 uM protein, 30 min on ice", "settings": "protein: recombinant; label: 5' 6-carboxyfluorescein"}, "OID (OID-N208) [3]": {"target": "T3, OID (OID-N208) (Adeno-associated virus 2 (AAV2), UniProt P03132 1-208)", "assay": "fluorescence anisotropy; Anisotropy: 20 mM HEPES pH 7.5, 50 mM NaCl, 5 nM DNA, 20 C, 15 min. SEC: 25 mM Tris-HCl pH 8.0 (4 C), 200 mM NaCl, 5% glycerol, 1 mM TCEP, 16.6 uM protein, 30 min on ice", "settings": "protein: recombinant; chain copies: 2; label: 5' 6-carboxyfluorescein"}, "His-Rep68 WT": {"target": "His-Rep68 WT (Adeno-associated virus 2 (AAV2), UniProt P03132 1-536)", "assay": "size exclusion chromatography; somewhat less efficient than untagged; Anisotropy: 20 mM HEPES pH 7.5, 50 mM NaCl, 5 nM DNA, 20 C, 15 min. SEC: 25 mM Tris-HCl pH 8.0 (4 C), 200 mM NaCl, 5% glycerol, 1 mM TCEP, 16.6 uM protein, 30 min on ice", "settings": "protein: recombinant; tags: N-terminal His6-PreScission site; chain copies: 16"}, "Rep40 [4]": {"target": "T2, Rep40", "assay": "size exclusion chromatography; 2.8 or 16.6 uM ssDNA, 200 mM NaCl; ssDNA elutes free; Anisotropy: 20 mM HEPES pH 7.5, 50 mM NaCl, 5 nM DNA, 20 C, 15 min. SEC: 25 mM Tris-HCl pH 8.0 (4 C), 200 mM NaCl, 5% glycerol, 1 mM TCEP, 16.6 uM protein, 30 min on ice", "settings": "protein: recombinant"}, "OID (OID-N208) [5]": {"target": "T3, OID (OID-N208)", "assay": "size exclusion chromatography; 2.8 or 16.6 uM ssDNA, 200 mM NaCl; ssDNA elutes free; Anisotropy: 20 mM HEPES pH 7.5, 50 mM NaCl, 5 nM DNA, 20 C, 15 min. SEC: 25 mM Tris-HCl pH 8.0 (4 C), 200 mM NaCl, 5% glycerol, 1 mM TCEP, 16.6 uM protein, 30 min on ice", "settings": "protein: recombinant; chain copies: 2"}, "Rep68 [6]": {"target": "T1, Rep68", "assay": "size exclusion chromatography; sedimentation velocity; SAXS; cryo-EM; no nucleotide; apparent ~2.3 MDa; Anisotropy: 20 mM HEPES pH 7.5, 50 mM NaCl, 5 nM DNA, 20 C, 15 min. SEC: 25 mM Tris-HCl pH 8.0 (4 C), 200 mM NaCl, 5% glycerol, 1 mM TCEP, 16.6 uM protein, 30 min on ice", "settings": "protein: recombinant; tags: untagged (His6-PreScission tag removed); chain copies: 16"}, "OID (OID-N208) [7]": {"target": "T3, OID (OID-N208)", "assay": "size exclusion chromatography; 2.8 or 16.6 uM RBS dsDNA, 200 mM NaCl; Anisotropy: 20 mM HEPES pH 7.5, 50 mM NaCl, 5 nM DNA, 20 C, 15 min. SEC: 25 mM Tris-HCl pH 8.0 (4 C), 200 mM NaCl, 5% glycerol, 1 mM TCEP, 16.6 uM protein, 30 min on ice", "settings": "protein: recombinant; chain copies: 2; blunt"}, "Rep68 [8]": {"target": "T1, Rep68", "assay": "size exclusion chromatography; sedimentation velocity; SAXS; apparent ~578 kDa; five Rep68 subunits; Anisotropy: 20 mM HEPES pH 7.5, 50 mM NaCl, 5 nM DNA, 20 C, 15 min. SEC: 25 mM Tris-HCl pH 8.0 (4 C), 200 mM NaCl, 5% glycerol, 1 mM TCEP, 16.6 uM protein, 30 min on ice", "settings": "protein: recombinant; tags: untagged (His6-PreScission tag removed); chain copies: 5; blunt"}, "[9]": {"target": "the molecule itself", "assay": "cryo-EM structure; Rep68-heteroduplex complex purified by size-exclusion chromatography; 2D classification of a limited number of end views"}, "[10]": {"target": "the molecule itself", "assay": "cryo-EM structure; Rep68-ssDNA complex purified on Superose 6, about 0.4 mg/ml; 0.05% n-octyl β-D-glucopyranoside for side views; reference-free 2D alignment and classification only (no 3D map)"}, "[11]": {"target": "the molecule itself", "assay": "AUC; with RBS dsDNA; sedimentation velocity (Rep68 1 mg/ml, 2.8 µM RBS dsDNA, buffer A, 45,000 rpm, 20°C) and sedimentation equilibrium (complex purified by gel filtration, OD260 0.25 or 0.75; 4,000, 5,000 and 7,000 rpm, 20°C)"}, "[12]": {"target": "the molecule itself", "assay": "SEC; Superose 6 10/300 GL, buffer A (25 mM Tris-HCl pH 8.0, 200 mM NaCl, 5% glycerol, 1 mM TCEP); Rep protein 16.6 µM incubated with 2.8 µM ssDNA (polydT25) 30 min on ice; also with 1 mM ATP, ATP/CaCl2 or ATP/MgCl2 added (same complex)"}}, "note": "Positions count from the first letter of the chain named. In names and notes the source's numbering stands.", "data": [{"binder": "B1", "values": [{"measurement": "Kd", "setting": "Rep68 [1]", "result": 23, "unit": "nM"}, {"measurement": "Kd", "setting": "Rep40 [2]", "result": "~3.5", "unit": "µM"}, {"measurement": "Kd", "setting": "OID (OID-N208) [3]", "result": "~130", "unit": "nM"}]}, {"binder": "B2", "values": [{"measurement": "binding result", "setting": "His-Rep68 WT", "result": "binds"}, {"measurement": "binding result", "setting": "Rep40 [4]", "result": "no binding"}, {"measurement": "binding result", "setting": "OID (OID-N208) [5]", "result": "no binding"}, {"measurement": "binding result", "setting": "Rep68 [6]", "result": "binds"}]}, {"binder": "B3", "values": [{"measurement": "binding result", "setting": "OID (OID-N208) [7]", "result": "binds"}, {"measurement": "binding result", "setting": "Rep68 [8]", "result": "binds"}]}, {"binder": "B4", "values": [{"measurement": "stoichiometry N", "setting": "[9]", "result": 8}, {"measurement": "stoichiometry N", "setting": "[10]", "result": 16}, {"measurement": "stoichiometry N", "setting": "[11]", "result": 5}]}, {"binder": "B5", "values": [{"measurement": "binding result", "setting": "[12]", "result": "binds"}]}, {"binder": "B6", "values": [{"measurement": "binding result", "setting": "[12]", "result": "binds"}]}]}
